Measured values: patent US9492508B2, “Parathyroid hormone analogs and uses thereof” (The General Hospital Corporation, priority 2010, dated 2016)
One block for each molecule: values may come before it. Square brackets hold non-standard residues; d marks the D form. Ends that are not written are not given here. hArg = N=C(N)NCCCC[C@H](N)C(=O)O; Aib = CC(C)(N)C(=O)O

Legend:
[1] = Repetitive daily dosing in TPTX rats (10 days); format: in vivo, rat; details: calcitriol 0.2 μg/kg oral daily 10 days
Procedure: FIGS. 20A-20D are graphs showing effects of once-daily SP-PTH on serum and urine Ca in TPTX rats. TPTX and sham-control rats were treated once daily, for 10 days, via sc. injection with either vehicle (Sham and TPTX) or SP-PTH (SEQ ID NO:11) (1, 2. 4, or 8 nmol/kg), or with 1,25(OH)2D (0.075 or 0.2 μg/kg. orn). After the last injection on day 10, the rats were placed in metabolic cages, and jugular vein blood was obtained at 8 (FIG. 20A) and 24 hrs (FIG. 20B); urine was collected for the intervals 0-8 (FIG. 20C) and 8-24 hrs (FIG. 20D); means±s.e.m: n=5; ′˜, P vs vehicle <005.
In therapeutic use in humans, one would administer doses sufficient to only normalize blood Ca. A key experiment is to determine if it is indeed feasible to normalize sCa following a repetitive dosing regimen. We thus performed the experiment of FIGS. 20A-2D, in which TPTX rats were treated daily for 10 days with SP-PTH at doses of 1, 2, 4 and 8 nmol/kg (s.c). For comparison, 1,25(OH)2-vitamin-D (calcitriol) at doses of 0.075 and 0.2 mcg/kg (oral) were used for the same time periods.

[2] = Peptide pharmacokinetics in TPTX rats
rat PTH receptor [3] = molecular target: T1, rat PTH receptor (rat, UniProt P25961 27-591, limits assumed); test: radioligand displacement, rat PTHR1, R0 conformation
T1 construct: R0 and RG conformations assayed separately by the method of WO 2009/017809 or a similar one; also called rat PTHR1
T1 sequence (looked up): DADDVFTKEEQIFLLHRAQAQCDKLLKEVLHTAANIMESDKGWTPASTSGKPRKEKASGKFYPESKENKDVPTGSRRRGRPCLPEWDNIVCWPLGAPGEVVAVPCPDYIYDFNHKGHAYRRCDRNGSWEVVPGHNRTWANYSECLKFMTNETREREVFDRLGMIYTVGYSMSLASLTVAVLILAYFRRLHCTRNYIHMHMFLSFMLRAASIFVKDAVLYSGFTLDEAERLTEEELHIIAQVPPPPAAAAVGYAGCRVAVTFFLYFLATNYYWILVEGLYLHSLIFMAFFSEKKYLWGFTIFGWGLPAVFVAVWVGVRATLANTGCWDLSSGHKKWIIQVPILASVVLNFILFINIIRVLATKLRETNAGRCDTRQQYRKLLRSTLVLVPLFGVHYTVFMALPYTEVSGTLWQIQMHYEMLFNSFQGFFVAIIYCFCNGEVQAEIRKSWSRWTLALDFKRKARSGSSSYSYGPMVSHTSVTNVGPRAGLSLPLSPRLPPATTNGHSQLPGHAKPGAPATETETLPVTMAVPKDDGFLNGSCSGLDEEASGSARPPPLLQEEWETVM

human PTH-1 receptor [4] = molecular target: T2, human PTH-1 receptor (human, UniProt Q03431 27-593); test: radioligand competition, human PTHR1 in COS-7 membranes, R0 conformation
T2 construct: whole, on cells; also called human PTHR1; human PTH receptor
T2 sequence (looked up): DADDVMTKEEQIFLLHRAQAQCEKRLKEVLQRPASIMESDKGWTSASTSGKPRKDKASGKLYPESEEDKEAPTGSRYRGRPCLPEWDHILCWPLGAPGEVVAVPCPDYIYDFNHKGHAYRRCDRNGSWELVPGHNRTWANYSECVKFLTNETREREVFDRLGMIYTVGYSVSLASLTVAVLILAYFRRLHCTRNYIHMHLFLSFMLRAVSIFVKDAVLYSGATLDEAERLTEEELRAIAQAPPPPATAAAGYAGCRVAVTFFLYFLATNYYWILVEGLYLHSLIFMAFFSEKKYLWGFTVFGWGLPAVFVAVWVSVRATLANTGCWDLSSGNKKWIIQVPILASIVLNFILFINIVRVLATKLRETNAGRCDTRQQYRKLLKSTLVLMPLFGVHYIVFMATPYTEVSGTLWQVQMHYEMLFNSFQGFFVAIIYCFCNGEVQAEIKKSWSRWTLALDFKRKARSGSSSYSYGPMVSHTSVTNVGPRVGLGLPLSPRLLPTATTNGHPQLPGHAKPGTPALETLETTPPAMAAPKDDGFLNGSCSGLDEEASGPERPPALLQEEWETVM
Procedure: (§1) Here, competition binding assays for the R⁰ and RG PTHR1 conformation were performed in membranes prepared from transfected COS-7 cells, as described by Dean et al., Mol Endocrinol 22:156-66, 2008. Data are means of three experiments, each performed in duplicate. Curves were fit to the data using Graph-Pad Prism 4.0.

human PTH-1 receptor [5] = molecular target: T2, human PTH-1 receptor; test: radioligand competition, human PTHR1 in COS-7 membranes, RG conformation
Procedure: as §1

rat PTH receptor [6] = molecular target: T1, rat PTH receptor; test: radioligand displacement, rat PTHR1, RG conformation
[7] = Crl:CD(SD), rat, in vivo, iv, 24.3 nmol/kg
[8] = TPTX rats, 24.3 nmol/kg intravenously, mean

Molecule: C=C1/C(=C\C=C2/CCC[C@]3(C)[C@@H]([C@H](C)CCCC(C)(C)O)CC[C@@H]23)C[C@@H](O)C[C@@H]1O [calcitriol, 1,25(OH)2-vitamin-D, reference compound]
sCa achieved [1]: 8 to 9 mg/dL
urine calcium [1]: elevated urine calcium

Molecule: CC[C@H](C)[C@H](NC(=O)[C@H](CCC(=O)O)NC(=O)[C@H](CO)NC(=O)[C@@H](NC(=O)[C@@H](N)CO)C(C)C)C(=O)N[C@@H](CCC(N)=O)C(=O)N[C@@H](CC(C)C)C(=O)N[C@@H](CCSC)C(=O)N[C@@H](Cc1c[nH]cn1)C(=O)N[C@@H](CC(N)=O)C(=O)N[C@@H](CC(C)C)C(=O)NCC(=O)N[C@@H](CCCCN)C(=O)N[C@@H](Cc1c[nH]cn1)C(=O)N[C@@H](CC(C)C)C(=O)N[C@@H](CC(N)=O)C(=O)N[C@@H](CO)C(=O)N[C@@H](CCSC)C(=O)N[C@@H](CCC(=O)O)C(=O)N[C@@H](CCCNC(=N)N)C(=O)N[C@H](C(=O)N[C@@H](CCC(=O)O)C(=O)N[C@@H](Cc1c[nH]c2ccccc12)C(=O)N[C@@H](CC(C)C)C(=O)N[C@@H](CCCNC(=N)N)C(=O)N[C@@H](CCCCN)C(=O)N[C@@H](CCCCN)C(=O)N[C@@H](CC(C)C)C(=O)N[C@@H](CCC(N)=O)C(=O)N[C@@H](CC(=O)O)C(=O)N[C@H](C(=O)N[C@@H](Cc1c[nH]cn1)C(=O)N[C@@H](CC(N)=O)C(=O)N[C@@H](Cc1ccccc1)C(=O)N[C@H](C(=O)N[C@@H](C)C(=O)N[C@@H](CC(C)C)C(=O)NCC(=O)N[C@@H](C)C(=O)N1CCC[C@H]1C(=O)N[C@@H](CC(C)C)C(=O)N[C@@H](C)C(=O)N1CCC[C@H]1C(=O)N[C@@H](CCCNC(=N)N)C(=O)N[C@@H](CC(=O)O)C(=O)N[C@@H](C)C(=O)NCC(=O)N[C@@H](CO)C(=O)N[C@@H](CCC(N)=O)C(=O)N[C@@H](CCCNC(=N)N)C(=O)N1CCC[C@H]1C(=O)N[C@@H](CCCNC(=N)N)C(=O)N[C@@H](CCCCN)C(=O)N[C@@H](CCCCN)C(=O)N[C@@H](CCC(=O)O)C(=O)N[C@@H](CC(=O)O)C(=O)N[C@@H](CC(N)=O)C(=O)N[C@H](C(=O)N[C@@H](CC(C)C)C(=O)N[C@H](C(=O)N[C@@H](CCC(=O)O)C(=O)N[C@@H](CO)C(=O)N[C@@H](Cc1c[nH]cn1)C(=O)N[C@@H](CCC(=O)O)C(=O)N[C@@H](CCCCN)C(=O)N[C@@H](CO)C(=O)N[C@@H](CC(C)C)C(=O)NCC(=O)N[C@@H](CCC(=O)O)C(=O)N[C@@H](C)C(=O)N[C@@H](CC(=O)O)C(=O)N[C@@H](CCCCN)C(=O)N[C@@H](C)C(=O)N[C@@H](CC(=O)O)C(=O)N[C@H](C(=O)N[C@@H](CC(N)=O)C(=O)N[C@H](C(=O)N[C@@H](CC(C)C)C(=O)N[C@H](C(=O)N[C@@H](CCCCN)C(=O)N[C@@H](C)C(=O)N[C@@H](CCCCN)C(=O)N[C@@H](CO)C(=O)N[C@@H](CCC(N)=O)C(=O)O)[C@@H](C)O)C(C)C)C(C)C)C(C)C)C(C)C)C(C)C)C(C)C)C(C)C [hPTH (1-84), hPTH(1-84)]
MRT [2, 7]: 3.58 min
Vd [2, 7]: 0.0662 L/kg
clearance [2, 7]: 17.2 mL/min/kg
half-life [2, 7]: 5.44 min
AUCinf [2, 8]: 1663 pmol·min/mL
AUClast [2, 8]: 1663 pmol·min/mL

IC50 (rat PTH receptor [3]): 0.93 nM
IC50 (human PTH-1 receptor [4]): 1.8 nM
IC50 (human PTH-1 receptor [5]): 0.69 nM
B1: Aib-SP-PTH ([Ala1,12,Aib3,Gln10,Har11,Trp14]PTH(1-14)/PTHrP(15-36)) (peptide)
peptide: AV[Aib]EIQLMHQ[hArg]AKWIQDLRRRFFLHHLIAEIHTAEI-NH2
modifications: N-terminus assumed
SMILES: CC[C@H](C)[C@H](NC(=O)[C@H](CCC(=O)O)NC(=O)[C@H](C)NC(=O)[C@@H](NC(=O)[C@H](Cc1c[nH]cn1)NC(=O)[C@@H](NC(=O)[C@H](CCC(=O)O)NC(=O)[C@H](C)NC(=O)[C@@H](NC(=O)[C@H](CC(C)C)NC(=O)[C@H](Cc1c[nH]cn1)NC(=O)[C@H](Cc1c[nH]cn1)NC(=O)[C@H](CC(C)C)NC(=O)[C@H](Cc1ccccc1)NC(=O)[C@H](Cc1ccccc1)NC(=O)[C@H](CCCNC(=N)N)NC(=O)[C@H](CCCNC(=N)N)NC(=O)[C@H](CCCNC(=N)N)NC(=O)[C@H](CC(C)C)NC(=O)[C@H](CC(=O)O)NC(=O)[C@H](CCC(N)=O)NC(=O)[C@@H](NC(=O)[C@H](Cc1c[nH]c2ccccc12)NC(=O)[C@H](CCCCN)NC(=O)[C@H](C)NC(=O)[C@H](CCCCNC(=N)N)NC(=O)[C@H](CCC(N)=O)NC(=O)[C@H](Cc1c[nH]cn1)NC(=O)[C@H](CCSC)NC(=O)[C@H](CC(C)C)NC(=O)[C@H](CCC(N)=O)NC(=O)[C@@H](NC(=O)[C@H](CCC(=O)O)NC(=O)C(C)(C)NC(=O)[C@@H](NC(=O)[C@H](C)N)C(C)C)[C@@H](C)CC)[C@@H](C)CC)[C@@H](C)CC)[C@@H](C)CC)[C@@H](C)O)C(N)=O
notes: Synthetic hybrid analog of human PTH(1-14) and human PTHrP(15-36); also called Super-potent Aib-PTH; M-PTH(1-14)/rP(15-36)NH2

IC50 (rat PTH receptor [6]): 0.45 nM
IC50 (human PTH-1 receptor [4]): 0.94 nM
IC50 (human PTH-1 receptor [5]): 0.37 nM
B2: Aib-SP-PTH-AAK ([Ala1,12,18,22,Aib3,Gln10,Har11,Trp14,Lys26]PTH(1-14)/PTHrP(15-36)) (peptide)
peptide: AV[Aib]EIQLMHQ[hArg]AKWIQDARRRAFLHKLIAEIHTAEI-NH2
modifications: N-terminus assumed
SMILES: CC[C@H](C)[C@H](NC(=O)[C@H](CCC(=O)O)NC(=O)[C@H](C)NC(=O)[C@@H](NC(=O)[C@H](Cc1c[nH]cn1)NC(=O)[C@@H](NC(=O)[C@H](CCC(=O)O)NC(=O)[C@H](C)NC(=O)[C@@H](NC(=O)[C@H](CC(C)C)NC(=O)[C@H](CCCCN)NC(=O)[C@H](Cc1c[nH]cn1)NC(=O)[C@H](CC(C)C)NC(=O)[C@H](Cc1ccccc1)NC(=O)[C@H](C)NC(=O)[C@H](CCCNC(=N)N)NC(=O)[C@H](CCCNC(=N)N)NC(=O)[C@H](CCCNC(=N)N)NC(=O)[C@H](C)NC(=O)[C@H](CC(=O)O)NC(=O)[C@H](CCC(N)=O)NC(=O)[C@@H](NC(=O)[C@H](Cc1c[nH]c2ccccc12)NC(=O)[C@H](CCCCN)NC(=O)[C@H](C)NC(=O)[C@H](CCCCNC(=N)N)NC(=O)[C@H](CCC(N)=O)NC(=O)[C@H](Cc1c[nH]cn1)NC(=O)[C@H](CCSC)NC(=O)[C@H](CC(C)C)NC(=O)[C@H](CCC(N)=O)NC(=O)[C@@H](NC(=O)[C@H](CCC(=O)O)NC(=O)C(C)(C)NC(=O)[C@@H](NC(=O)[C@H](C)N)C(C)C)[C@@H](C)CC)[C@@H](C)CC)[C@@H](C)CC)[C@@H](C)CC)[C@@H](C)O)C(N)=O
notes: Synthetic hybrid analog of human PTH(1-14) and human PTHrP(15-36); also called Super-potent Aib-AAK PTH; M-PTH(1-14)AAK-/rP(15-36)NH2

IC50 (rat PTH receptor [3]): 1.4 nM
IC50 (rat PTH receptor [6]): 0.61 nM
IC50 (human PTH-1 receptor [4]): 1.4 nM
IC50 (human PTH-1 receptor [5]): 0.48 nM
B3: SP-PTH ([Ala1,3,12,Gln10,Arg11,Trp14]PTH(1-14)/PTHrP(15-36)) (peptide)
peptide: AVAEIQLMHQRAKWIQDLRRRFFLHHLIAEIHTAEI-OH
notes: Synthetic hybrid analog of human PTH(1-14) and human PTHrP(15-36); also called Super-potent PTH; Mc-PTH(1-14)/rP(15-36)OH

IC50 (rat PTH receptor [3]): 0.21 nM
IC50 (rat PTH receptor [6]): 0.7 nM
IC50 (human PTH-1 receptor [4]): 0.68 nM
IC50 (human PTH-1 receptor [5]): 0.22 nM
B4: SP-PTH-AAK ([Ala1,3,12,18,22,Gln10,Arg11,Trp14,Lys26]PTH(1-14)/PTHrP(15-36)) (peptide)
peptide: AVAEIQLMHQRAKWIQDARRRAFLHKLIAEIHTAEI-OH
notes: Synthetic hybrid analog of human PTH(1-14) and human PTHrP(15-36); also called Mc-PTH(1-14)/AAK-rP(15-36)OH; SP-AAK
